Data on 19 molecules can be found in patent US20200297818A1 (ZEALAND PHARMA A S, published 2020).

Positions count from the first letter of the chain named. *1 amine or outer side, *2 acyl side, *3 side chain or, on linkers, in order; H or OH if unused. Side-chain parts run from the residue outwards. [ ]: non-standard residue; d: D form. The star is where a group is joined. C20 diacid = O=C(O)CCCCCCCCCCCCCCCCCCC(=O)*; C18 diacid = O=C(O)CCCCCCCCCCCCCCCCC(=O)*; γGlu = O=C(O)[C@H](CCC(=O)[*:2])N[*:1]; AEEA = NCCOCCOCC(=O)O; Aib = CC(C)(N)C(=O)O

The labels stand for the following.
T1: human GLP-2 receptor (hGLP2-R) (human, UniProt O95838 1-553)
T1 sequence (looked up): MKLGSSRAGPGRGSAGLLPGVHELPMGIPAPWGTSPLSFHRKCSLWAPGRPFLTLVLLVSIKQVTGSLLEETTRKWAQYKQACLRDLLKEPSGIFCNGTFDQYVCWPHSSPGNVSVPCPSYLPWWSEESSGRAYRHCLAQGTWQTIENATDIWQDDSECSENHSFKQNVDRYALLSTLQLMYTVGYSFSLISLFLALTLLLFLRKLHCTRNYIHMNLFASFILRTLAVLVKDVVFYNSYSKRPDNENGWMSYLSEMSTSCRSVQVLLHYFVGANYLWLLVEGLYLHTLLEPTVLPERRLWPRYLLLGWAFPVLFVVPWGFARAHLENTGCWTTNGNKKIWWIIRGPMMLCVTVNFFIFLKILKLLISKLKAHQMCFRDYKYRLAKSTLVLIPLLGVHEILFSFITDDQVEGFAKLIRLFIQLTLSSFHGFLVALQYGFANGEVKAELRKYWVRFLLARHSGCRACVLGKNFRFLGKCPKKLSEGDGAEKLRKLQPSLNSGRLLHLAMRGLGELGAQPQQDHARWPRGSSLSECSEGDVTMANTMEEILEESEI

B1: Compound 52 (peptide)
peptide: H-H[Aib]EGTFTSELATILDK([AEEA-Lys-Glu-Lys-γGlu-C20 diacid])QAARDFIAWLIQHKITD-OH
B2: Compound 59 (peptide)
peptide: H-H[Aib]EGSFTSELATILDK([AEEA-Lys-Glu-Lys-γGlu-C20 diacid])KAARDFIAWLIEHKITD-OH
B3: Compound 62 (peptide)
peptide: H-H[Aib]EGSFTSELATILDAK([AEEA-Lys-Glu-Lys-γGlu-C20 diacid])AARDFIAWLIEHKITD-OH
B4: Compound 55 (peptide)
peptide: H-H[Aib]EGSFTSEK([AEEA-AEEA-Lys-Glu-Lys-γGlu-C20 diacid])ATILDEQAARDFIAWLIEHKITD-OH
B5: Compound 53 (peptide)
peptide: H-H[Aib]EGSFTSEK([AEEA-Lys-Glu-Lys-γGlu-C20 diacid])ATILDEQAARDFIAWLIEHKITD-OH
B6: Compound 50 (peptide)
peptide: H-H[Aib]EGTFSSELATILDK([AEEA-Lys-Glu-Lys-γGlu-C20 diacid])QAARDFIAWLIEHKITD-OH
B7: Compound 54 (peptide)
peptide: H-H[Aib]EGTFTSEK([AEEA-Lys-Glu-Lys-γGlu-C20 diacid])ATILDEQAARDFIAWLIEHKITD-OH
B8: Compound 1 (peptide)
peptide: HXEGTFSSELATILDXEAARDFIAWLIEHKITD
HELM: PEPTIDE1{H.[Aib].E.G.T.F.S.S.E.L.A.T.I.L.D.K.E.A.A.R.D.F.I.A.W.L.I.E.H.K.I.T.D}|PEPTIDE2{[O=C(O)CCCCCCCCCCCCCCCCC(=O)[*:2]].[gGlu]}$PEPTIDE1,PEPTIDE2,16:R3-2:R2$$$V2.0
SMILES: CC[C@H](C)[C@H](NC(=O)[C@H](Cc1ccccc1)NC(=O)[C@H](CC(=O)O)NC(=O)[C@H](CCCNC(=N)N)NC(=O)[C@H](C)NC(=O)[C@H](C)NC(=O)[C@H](CCC(=O)O)NC(=O)[C@H](CCCCNC(=O)CC[C@H](NC(=O)CCCCCCCCCCCCCCCCC(=O)O)C(=O)O)NC(=O)[C@H](CC(=O)O)NC(=O)[C@H](CC(C)C)NC(=O)[C@@H](NC(=O)[C@@H](NC(=O)[C@H](C)NC(=O)[C@H](CC(C)C)NC(=O)[C@H](CCC(=O)O)NC(=O)[C@H](CO)NC(=O)[C@H](CO)NC(=O)[C@H](Cc1ccccc1)NC(=O)[C@@H](NC(=O)CNC(=O)[C@H](CCC(=O)O)NC(=O)C(C)(C)NC(=O)[C@@H](N)Cc1c[nH]cn1)[C@@H](C)O)[C@@H](C)O)[C@@H](C)CC)C(=O)N[C@@H](C)C(=O)N[C@@H](Cc1c[nH]c2ccccc12)C(=O)N[C@@H](CC(C)C)C(=O)N[C@H](C(=O)N[C@@H](CCC(=O)O)C(=O)N[C@@H](Cc1c[nH]cn1)C(=O)N[C@@H](CCCCN)C(=O)N[C@H](C(=O)N[C@H](C(=O)N[C@@H](CC(=O)O)C(=O)O)[C@@H](C)O)[C@@H](C)CC)[C@@H](C)CC
B9: Compound 2 (peptide)
peptide: B8 peptide with T5S, S7T
HELM: PEPTIDE1{H.[Aib].E.G.S.F.T.S.E.L.A.T.I.L.D.K.E.A.A.R.D.F.I.A.W.L.I.E.H.K.I.T.D}|PEPTIDE2{[O=C(O)CCCCCCCCCCCCCCCCC(=O)[*:2]].[gGlu]}$PEPTIDE1,PEPTIDE2,16:R3-2:R2$$$V2.0
SMILES: CC[C@H](C)[C@H](NC(=O)[C@H](Cc1ccccc1)NC(=O)[C@H](CC(=O)O)NC(=O)[C@H](CCCNC(=N)N)NC(=O)[C@H](C)NC(=O)[C@H](C)NC(=O)[C@H](CCC(=O)O)NC(=O)[C@H](CCCCNC(=O)CC[C@H](NC(=O)CCCCCCCCCCCCCCCCC(=O)O)C(=O)O)NC(=O)[C@H](CC(=O)O)NC(=O)[C@H](CC(C)C)NC(=O)[C@@H](NC(=O)[C@@H](NC(=O)[C@H](C)NC(=O)[C@H](CC(C)C)NC(=O)[C@H](CCC(=O)O)NC(=O)[C@H](CO)NC(=O)[C@@H](NC(=O)[C@H](Cc1ccccc1)NC(=O)[C@H](CO)NC(=O)CNC(=O)[C@H](CCC(=O)O)NC(=O)C(C)(C)NC(=O)[C@@H](N)Cc1c[nH]cn1)[C@@H](C)O)[C@@H](C)O)[C@@H](C)CC)C(=O)N[C@@H](C)C(=O)N[C@@H](Cc1c[nH]c2ccccc12)C(=O)N[C@@H](CC(C)C)C(=O)N[C@H](C(=O)N[C@@H](CCC(=O)O)C(=O)N[C@@H](Cc1c[nH]cn1)C(=O)N[C@@H](CCCCN)C(=O)N[C@H](C(=O)N[C@H](C(=O)N[C@@H](CC(=O)O)C(=O)O)[C@@H](C)O)[C@@H](C)CC)[C@@H](C)CC
B10: Compound 61 (peptide)
peptide: H-H[Aib]EGSFTSELATILEGK([AEEA-Lys-Glu-Lys-γGlu-C20 diacid])AARDFIAWLIEHKITD-OH
B11: Compound 58 (peptide)
peptide: H-H[Aib]EGSFTSELATILDK([AEEA-Lys-Glu-Lys-γGlu-C20 diacid])QAARDFIAWLIAHKITD-OH
B12: Compound 47 (peptide)
peptide: H-H[Aib]EGTFSSELATILDK([AEEA-Lys-Glu-Lys-γGlu-C18 diacid])QAARDFIAWLIQHKITD-OH
B13: Compound 57 (peptide)
peptide: H-H[Aib]EGSFTSELATILDK([AEEA-Lys-Glu-Lys-γGlu-C20 diacid])QAARDFIAWLIEHKITD-OH
B14: Compound 49 (peptide)
peptide: H-H[Aib]EGTFSSELATILDK([AEEA-Lys-Glu-Lys-γGlu-C18 diacid])QAARDFIAWLIEHKITD-OH
B15: Compound 60 (peptide)
peptide: H-H[Aib]EGSFTSELATILDK([AEEA-AEEA-Lys-Glu-Lys-γGlu-C20 diacid])QAARDFIAWLIEHKITD-OH
B16: Teduglutide (peptide)
peptide: HGDGSFSDEMNTILDNLAARDFINWLIQTKITD
B17: Compound 56 (peptide)
peptide: H-H[Aib]EGTFTSELATILDK([AEEA-Lys-Glu-Lys-γGlu-C20 diacid])QAARDFIAWLIEHKITD-OH
B18: Compound 51 (peptide)
peptide: H-H[Aib]EGTFTSELATILDK([Lys-Glu-Lys-γGlu-C20 diacid])QAARDFIAWLIQHKITD-OH
B19: Compound 48 (peptide)
peptide: H-H[Aib]EGTFSSELATILDK([AEEA-Lys-Glu-Lys-γGlu-C20 diacid])QAARDFIAWLIQHKITD-OH

One experiment has as its target human glucagon-like peptide 1 receptor (GLP-1 R) (human, UniProt P43220 24-463). The experiment is described as follows: cell-based or functional assay.
With B1, the “EC50 GLP-1 (nM); cAMP response” value was determined as 0.02 nM.
Still for that read-out and setting: as for B2, the figure is 0.088 nM; as for B3, 0.27 nM; as for B4, 0.11 nM.
The same measure, in the same setting: then B5, with 0.076 nM; and B6, with 0.31 nM.
On the same count and under the same terms, then B7, with 0.034 nM; and B8, with 0.63 nM; and B9, with 0.13 nM.
For B10, the “EC50 GLP-1 (nM); cAMP response” value was 0.13 nM.
With B11, the “EC50 GLP-1 (nM); cAMP response” value amounted to 0.089 nM.
The same measure, in the same setting: as for B12, the figure is 0.44 nM; as for B13, 0.093 nM.
For the molecule B14, the “EC50 GLP-1 (nM); cAMP response” value came out at 0.27 nM.
The same measure, in the same setting: then B15, with 0.097 nM; and B16, with 39 nM; and B17, with 0.033 nM.
On the same count and under the same terms, then B18, with 0.02 nM; and B19, with 0.47 nM.

The target of another experiment is T1, human GLP-2 receptor (hGLP2-R). The experiment is described as follows: cell-based or functional assay.
Consider B1, for which the “EC50 GLP-2 (nM); cAMP response” value was 0.075 nM.
Same read-out and setting: then B2, with 0.11 nM; and B3, with 0.15 nM.
Still for that read-out and setting: then B4, with 0.78 nM.
The same measure, in the same setting: as for B5, the figure is 0.24 nM.
Turning to B6, the “EC50 GLP-2 (nM); cAMP response” value turned out to be 0.056 nM.
Same read-out and setting: as for B7, the figure is 0.99 nM; as for B8, 0.35 nM.
Regarding B9, the “EC50 GLP-2 (nM); cAMP response” value was 0.25 nM.
Still for that read-out and setting: then B10, with 0.2 nM; and B11, with 0.09 nM; and B12, with 0.048 nM.
On the same count and under the same terms, then B13, with 0.083 nM; and B14, with 0.044 nM.
Still for that read-out and setting: then B15, with 0.074 nM.
For the molecule B17, the “EC50 GLP-2 (nM); cAMP response” value amounted to 0.076 nM.
Same read-out and setting: then B18, with 0.18 nM.
Consider B19, for which the “EC50 GLP-2 (nM); cAMP response” value was found to be 0.054 nM.
